Consider 18 sequences from the DeepSol protein solubility set.

This data set in a line: soluble on expression in E. coli; label from the status in PepcDB or PDB records.
As for “MRFSREALLELEASRLAPYAQKARDTRGRAHPEPESLYRTPYQKDRDRILHTTAFRRLEYKTQVLPGWAGDYYRTRLTHTLEVAQVSRSIARALGLNEDLTEAIALSHDLGHPPFGHTGEHVLNALMQDHGGFEHNAQALRILTHLEVRYPGFRGLNLTYEVLEGIATHEAAYSPGFKPLYEGQGTLEAQVVDLSDAIAYAAHDLDDGLRAGLLHPEELKEVELLQALALEEGLDLLRLPELDRRVLVRQLLGYFITAAIEATHRRVEEAGVQSAEAVRRHPSRLAALGEEAEKALKALKAFLMERFYRHPEVLRERRKAEAVLEGLFAAYTRYPELLPREVQAKIPEEGLERAVCDYIAGMTDRFALEAYRRLSP”, the “soluble on expression in E. coli” value is “soluble”.

For “MRGLAVLVLLVFAVQVAAAEDFRPVVFVHGLAGSAGQFESQGMRFAANGYPAEYVKTFEYDTISWALVVETDMLFSGLGSEFGLNISQIIDPETLDKILSKSRERLIDETFSRLDRVIDEALAESGADKVDLVGHSMGTFFLVRYVNSSPERAAKVAHLILLDGVWGVDAPEGIPTLAVFGNPKALPALGLPEEKVVYNATNVYFNNMTHVQLCTSPETFAVMFEFINGYKPATTDIVPQDGDYVKVKGKFLAFATNGDVSGWLSIYPIDENGKRLTRLPVKFMRVKGDFEVRLRKGQLYEFQFRKDFSPIIYHYYRAPFVRDDLWARFLVSKPPLDVELLILPERLSPAAKETSGLLLIRYKEMIGEYDEEIGGVDEVYVNGVNVCTERICPIERAVNGLWVFDRGADGKSDLDREVVRYSIMPFMSAADLVVPAEGTISIAVKSRTGGEESFTIPAWSADRHSIIVQFSDYIVDKLAAALEH”, the “soluble on expression in E. coli” value was “soluble”.

For “MRGNKGGERSRTFTVQARIVGRWQHPCSPRPEGRVHPQLPPHAAATRLACVRLYKHCGICGTPTHAVSHRNDTHDGDSAPTRCPRAEMPLSKKSSSLRQAIPCSVLFAADPLQVPSNACVGNRLSTVRRQHQFSASRHTKHAPSVAEDGNGIPRPPPVSVGAGVVDNANEPFAEYARLSTSLASRAHVEPFSSAPMSSFASCPYVAASSHGSTTMSKALRRLPTTVTALPGMAPPPPTISAAVPRNGHRTAGRTSAPLRVHLVHRTRSPPGLAHSPPAYSSTVTTSMPHEIPPTSALVLPYCTDAQLRNLFATLFVRTGDATWSVHQHILPFLTVRQHCNLSAAPSQVTAFFGLTSHSDEDVHEKGATGAAGHQGEQAFFGGPWATKEMNRVASQLCYSFVYVGILGCGEEMCWDTLPMPLGGIPALARRSPVRNAYNTGSTSASQSPVTRSSSSSAHPATPEKQCLCPTPHRSLRNSPCVSSSALGVVALMEGLKQHQPSRMVEDGGADDDEGGPKSTVLYHTDQLESSTLDVVTTSTLTSVEFRGVVEAPPLVQEVAFVRGATRSYKLSWETARGSLHT”, the “soluble on expression in E. coli” value is given as “soluble”.

Regarding “MRGSHHHHHHDDYDGIPNLTAVQISPNADPALGLEYPVRPPVPGAGGLNASAKGIHSIAIGATAEAAKGAAVAVGAGSIATGVNSVAIGPLSKALGDSAVTYGAASTAQKDGVAIGARASTSDTGVAVGFNSKADAKNSVAIGHSSHVAANHGYSIAIGDRSKTDRENSVSIGHESLNRQLTHLAAGTKDTDAVNVAQLKKEIEKTQENTNKRSAELLANANAYAD”, the “soluble on expression in E. coli” value was “soluble”.

Regarding “MRGSHHHHHHGMASMRILLSNDDGVHAPGIQTLAKALREFADVQVVAPDRNRSGASNSLTLESSLRTFTFDNGDIAVQMGTPTDCVYLGVNALMRPRPDIVVSGINAGPNLGDDVIYSGTVAAAMEGRHLGFPALAVSLNGYQHYDTAAAVTCALLRGLSREPLRTGRILNVNVPDLPLAQVKGIRVTRCGSRHPADKVIPQEDPRGNTLYWIGPPGDKYDAGPDTDFAAVDEGYVSVTPLHVDLTAHSAHDVVSDWLDSVGVGTQW”, the “soluble on expression in E. coli” value is listed as “soluble”.

Regarding “MRGSHHHHHHGSACELVREMEGVDYLADERKKAGFDVDEMKIVWAGSRHDFELTDRISKLVASDPGFSKEGRTMLPRKELFKNTLRKAAYAWKRIIELRLSQEEATMLRRYVDEPAFTDLHWGMFIPAIKGQGTDKQQEKWLPLAYKMQIIGCYAQTELGHGSNVQGLETTATFDPQTDEFVIHSPTLTSSKWWPGGLGKVSTHAVVYARLITDGKDYGVNGFIVQLRSLEDHKPLPGVTVGDIGMKFGNGAYNSMDNGVLSFDHVRIPRDQMLMRVSQVTKEGKYVQSDIPRQLLYGTMVYVRQSIVADASLAMSRAVCIATRYSAVRRQFGSQNGGQETQVIDYKTQQNRLFPLLASAYAFRFVGEWLKWLYTDVTQRLAANDFSTLPEAHACTAGLKSLTTSATADGIEECRKLCGGHGYLCSSGLPELFAVYVPACTYEGDNVVLQLQVARFLMKTISQLGTGKKPVGTVSYMGRIEHLMQCRSDVKQAEDWLKPSAVLEAFEARSARMSVACAKNLSKFENQEEGFAELAADLVEAAVAHCQLIVVSKYIEKLQQNIPGKGVKQQLEVLCGIYSLFILHKHQGDFLGTGYITSKQGSLANDQLRALYSQLRPNAVSLVDAFNYTDHYLGSILGRYDGNVYPKLYEAAWKDPLNKSDIADGFHEYIRPLLKQQLRTAKL”, the “soluble on expression in E. coli” value is “soluble”.

In the case of “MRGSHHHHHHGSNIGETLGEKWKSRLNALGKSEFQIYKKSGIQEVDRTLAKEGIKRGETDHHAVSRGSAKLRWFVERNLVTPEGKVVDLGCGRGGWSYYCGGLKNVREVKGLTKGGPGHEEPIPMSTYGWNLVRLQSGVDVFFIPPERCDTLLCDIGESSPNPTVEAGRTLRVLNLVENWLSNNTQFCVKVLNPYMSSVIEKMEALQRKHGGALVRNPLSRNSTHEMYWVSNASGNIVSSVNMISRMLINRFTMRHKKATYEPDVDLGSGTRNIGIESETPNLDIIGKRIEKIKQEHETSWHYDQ”, the “soluble on expression in E. coli” value is “soluble”.

As for “MRGSHHHHHHGSSEPLILDAPNADACIIWLHGLGADRTDFKPVAEALQMVLPSTRFILPQAPSQAVTVNGGWVMPSWYDILAFSPARAIDEDQLNASADQVIALIDEQRAKGIAAERIILAGFSQGGAVVLHTAFRRYAQPLGGVLALSTYAPTFDDLALDERHKRIPVLHLHGSQDDVVDPALGRAAHDALQAQGVEVGWHDYPMGHEVSLEEIHDIGAWLRKRL”, the “soluble on expression in E. coli” value is on record as “soluble”.

In the case of “MRGSHHHHHHTDPALRADLSLLKALSEADAIASSEQEVRQILLEEADRLQKEVRFDGLGSVLIRLNESTGPKVMICAHMDEVGFMVRSISREGAIDVLPVGNVRMAARQLQPVRITTREECKIPGLLDGDRQGNDVSAMRVDIGARSYDEVMQAGIRPGDRVTFDTTFQVLPHQRVMGKAFDDRLGCYLLVTLLRELHDAELPAEVWLVASSSEEVGLRGGQTATRAVSPDVAIVLDTACWAKNFDYGAANHRQIGNGPMLVLSDKSLIAPPKLTAWVETVAAEIGVPLQADMFSNGGTDGGAVHLTGTGVPTVVMGPATRHGHCAASIADCRDILQMQQLLSALIQRLTRETVVQLTDFRGLCGR”, the “soluble on expression in E. coli” value is listed as “soluble”.

As for “MRGSHHHHHHTDPALRALGLKQVHHIAIIATDYAVSKAFYCDILGFTLQSEVYREARDSWKGDLALNGQYVIELFSFPFPPERPSRPEACGLRHLAFSVDDIDAAVAHLESHNVKCETIRVDPYTQKRFTFFNDPDGLPLELYEQGLCGR”, the “soluble on expression in E. coli” value is recorded as “soluble”.

Consider “MRGSHHHHHHTDPALRATQKNFVELRNVTKRFGSNTVIDNINLTIPQGQMVTLLGPSGCGKTTILRLVAGLEKPSEGQIFIDGEDVTHRSIQQRDICMVFQSYALFPHMSLGENVGYGLKMLGVPRAELKARVKEALAMVDLEGFEDRFVDQISGGQQQRVALARALILKPKVLLFDEPLSNLDANLRRSMRDKIRELQKQFDITSLYVTHDQSEAFAVSDTVLVMNKGHIMQIGSPQDLYRQPASRFMASFMGDANLFPATFSDGYVDIYGYHLPRPLHFGTQGEGMVGVRPEAITLSDRGEESQRCVIRHVAYMGPQYEVTVEWHGQEILLQVNATRLQPDVGEQYYLEIHPYGMFVLADAAGLCGR”, for which the “soluble on expression in E. coli” value is listed as “soluble”.

On to “MRHLPTTDIQSTLRRGKSVEQFMGRSPASRNHIRHIELRPSNNLVEVWVYDVEDQGNEEWLDLYDFNELEKGEADLPAATFVDADAAIAYAQEALSANPSRWVNLGIAQSEYLDYIRSGRPDRWPAAA”, for which the “soluble on expression in E. coli” value is reported as “not soluble”.

Turning to “MRHRVKKKHFDRTKEQRLALYRSLARALIFDERIETTVERAKALRSFIEPLVELAKEGTLHARRQALSRLPDKPAIKKLFEDIAPRFEGRNGGYVRIIKLPYRRRGDGAEMAIIEWVELEHHHHHH”, the “soluble on expression in E. coli” value is “not soluble”.

In the case of “MRHVISVLVQDHPRVLNRITGLFARRGFNLESLAVGTTHQPGLSRICLVVSGDDRTLEQVEKQLNRLIEVLKVTDHTEPHVERELCLVKVHVAGLEERLAVKDIQEAFRARVVDVAQKSLILELTGDTQKVNSFIEALRPYGILEVMRTGAVAMSRGDRVLKVREKKEAV”, the “soluble on expression in E. coli” value was “soluble”.

In the case of “MRIDILTLFPGMFSGVLNESILKKAQEKGAVDIRLIDFREFADNKHKTVDDYPYGGGAGMVLKPQPIFDAVEHVTAGSPGARIILLCPQGERYTQKKAEELAKETHLVLICGHYEGYDERIRQYLATDEISIGDYILTGGELGAMVIVDSVVRLLPGVLGNEASPVDDSFSSGLLEYPQYTRPADFRGMKVPDILLSGNHQLIAEWREKESLRRTFLRRPDLLDEYPLTDKQKQWLKEWEKERE”, the “soluble on expression in E. coli” value is given as “not soluble”.

Turning to “MRILAFPYTHTLSHLSRVLAVALELRRMGHEVVFAGESAKVSFVSQQGFDVVPIHEPDPEMLFGNIRSGKLRFVEDAELLQMLTADIEVIRSLKPDLVLSDGRFSAPLSTHLTNVRHAAIVNASSTEYRALPYVPFFDWMPPWLISRDAMIWKALVRLNLFLEMKLFDNVMKVFKRLSRELNTNRTVTATNCLTGKDITLLADIPEYFPSRNLPASYHYVGPLTWKSVLAPPAWWPLDIPSSPLVYVTMGTTGVSEFFSKLGPSLSTSFFSSIVTTGGQSSELKPMPGKVYVESYLDGDLVMERSDVVICHGGNGTIYQALSHGKPVIGIPTIPDQKFNMRRVEAMGFGKSLDLKQFLEKPSLLADTVKQVLSDHSFRNSAQKIQAVLKSYNAATTSAKILIDSILLEHHHHHH”, the “soluble on expression in E. coli” value is given as “not soluble”.

For the sequence “MRILFSLFFFISLSLLAQPLSLSLKNAPTAEILSYLAEENMKNIVLSDQIDKNTTLRIENSHFDEIVESIVRANQLSKRKEKQIYFIGHLKEDKAIEKIDNGDKPKLITQTIKLDYAKASEVIESLTKGKGNGNVLSEQGYLYFDERSNSLIIKDSPDSMKHILALIKNLDKPTEQIAIEARIVTISSQDLQELGVRWGMFSPSDDYHKVASSLETKGLTTANHLNVNFPVNNATSLALQVARINSRVLDLELTALEQENNVEIIASPRLLTTNKKPASIKQGAEIPYVLYNRKDEVKNIEFKEAVLGLQVTPHISADNQILLDLVVTQNSPNLNNTAVNGLITIDKQELNTQVFAKHGETIVLGGIFQHLTAKGEDRVPLLGSIPVLKKLFSHSTDKITKRELVIFVTPYLVQDKYKKLEHHHHHH”, the “soluble on expression in E. coli” value was “not soluble”.

Turning to “MRILYFDCFAGASGDMILGALLDLGIDVGIFKRELAGLNLDGFDIAVEKKVINSIAVTDVNVIVKEECNHHTGHHHHCERNLADIEKIIDESSLKDNVKRLSKKIFSEIARAEAKVHNKSIEDVHFHEVGAIDSIVDIVGTAICLDLLKVDKIYSSPMHDGTGFIECQHGKLPVPVPAVLEMLKESNIPYITEDVNTELLTPTGLGIIKCVASKFGPMPPMTIEKVGYGAGKRQTGRFNALRCILGNAKEKEKIDDEICMLETNIDDMNPEILGYVMNRLFENGALDVFYTPVYMKKNRPGVLLTVLTDKEHEEKLVDIILTETTTLGIRKTTAQRYVLEREIKHVNTEFGKIRVKESSFGDYKKYSPEFEDCKKVAQELKIPLSKVYDAVNKAILVFEERNENALQ”, the “soluble on expression in E. coli” value is recorded as “soluble”.
